Measured values reported in the Human Domainome abundance scans (Beltran et al. 2025).
± gives the uncertainty stated by the source.

B1: Connector enhancer of kinase suppressor of ras 2, residues 9 to 71; numbered along this chain, Q8WXI2 (parent)
chain: SKWSPSQVVDWMKGLDDCLQQYIKNFEREKISGDQLLRITHQELEDLGVSRIGHQELILEAVD

Variants of: B1
Assay: abundance fitness (aPCA) (normalised: wild type 0, dead -1); higher = more abundant; growth selection in yeast, the domain comes from the species named
Settings: Homo sapiens
Variant K2Y has an abundance fitness of -0.012 ± 0.033.
Variant W3A has an abundance fitness of -0.653 ± 0.085.
W3C showed an abundance fitness of -0.713 ± 0.12.
W3D showed an abundance fitness of -0.393 ± 0.061.
In the case of W3E, the abundance fitness is reported as -0.725 ± 0.15.
For W3F, the abundance fitness was -0.563 ± 0.067.
Variant W3G has an abundance fitness of -0.597 ± 0.04.
For W3H, the abundance fitness was -0.772 ± 0.13.
Variant W3I has an abundance fitness of -0.053 ± 0.28.
W3K showed an abundance fitness of -0.409 ± 0.064.
In the case of W3L, the abundance fitness is reported as -0.236 ± 0.048.
For W3N, the abundance fitness was -0.545 ± 0.083.
With W3P the abundance fitness was -0.764 ± 0.16.
W3R showed an abundance fitness of -0.498 ± 0.04.
With W3S the abundance fitness was -0.504 ± 0.072.
W3T showed an abundance fitness of -1.05 ± 0.26.
In the case of W3Y, the abundance fitness is reported as -0.6 ± 0.084.
In the case of S4A, the abundance fitness is reported as -0.835 ± 0.044.
For S4C, the abundance fitness was -0.183 ± 0.047.
S4D showed an abundance fitness of -0.027 ± 0.031.
Variant S4F has an abundance fitness of -0.656 ± 0.049.
In the case of S4G, the abundance fitness is reported as -0.128 ± 0.025.
For S4H, the abundance fitness was -0.385 ± 0.067.
Work on S4I yielded an abundance fitness of -0.567 ± 0.088.
For S4K, the abundance fitness was -0.141 ± 0.043.
In the case of S4M, the abundance fitness is reported as -0.273 ± 0.041.
S4N gave an abundance fitness of 0.001 ± 0.042.
S4P showed an abundance fitness of -0.393 ± 0.057.
In the case of S4Q, the abundance fitness is reported as -0.676 ± 0.056.
S4T showed an abundance fitness of -0.053 ± 0.047.
With S4V the abundance fitness was -0.496 ± 0.025.
S4W gave an abundance fitness of -0.958 ± 0.075.
Variant S4Y has an abundance fitness of -0.491 ± 0.068.
Variant P5A has an abundance fitness of -0.055 ± 0.04.
For P5C, the abundance fitness was 0.026 ± 0.041.
In the case of P5D, the abundance fitness is reported as -0.275 ± 0.049.
P5E showed an abundance fitness of -0.336 ± 0.042.
In the case of P5F, the abundance fitness is reported as -0.161 ± 0.047.
P5G showed an abundance fitness of -0.37 ± 0.029.
With P5I the abundance fitness was -0.233 ± 0.062.
Variant P5K has an abundance fitness of -0.514 ± 0.048.
P5M gave an abundance fitness of -0.377 ± 0.044.
In the case of P5N, the abundance fitness is reported as 0.005 ± 0.041.
Work on P5Q yielded an abundance fitness of -0.315 ± 0.058.
P5S showed an abundance fitness of -0.007 ± 0.025.
P5T gave an abundance fitness of 0.043 ± 0.03.
For P5V, the abundance fitness was -0.047 ± 0.025.
For P5W, the abundance fitness was -0.095 ± 0.044.
P5Y showed an abundance fitness of 0 ± 0.051.
With S6A the abundance fitness was 0.036 ± 0.023.
In the case of S6C, the abundance fitness is reported as -0.195 ± 0.037.
For S6D, the abundance fitness was 0.026 ± 0.044.
Variant S6E has an abundance fitness of -0.033 ± 0.035.
In the case of S6F, the abundance fitness is reported as -0.287 ± 0.038.
S6G gave an abundance fitness of -0.052 ± 0.027.
In the case of S6H, the abundance fitness is reported as -0.04 ± 0.044.
S6I gave an abundance fitness of -0.17 ± 0.04.
Variant S6M has an abundance fitness of -0.043 ± 0.031.
For S6N, the abundance fitness was 0.016 ± 0.04.
Variant S6P has an abundance fitness of -0.328 ± 0.038.
With S6Q the abundance fitness was -0.003 ± 0.032.
For S6R, the abundance fitness was -0.043 ± 0.024.
For S6T, the abundance fitness was 0.015 ± 0.033.
In the case of S6V, the abundance fitness is reported as -0.076 ± 0.025.
S6W showed an abundance fitness of -0.291 ± 0.04.
With S6Y the abundance fitness was -0.166 ± 0.034.
Variant Q7A has an abundance fitness of -0.211 ± 0.031.
In the case of Q7C, the abundance fitness is reported as -0.574 ± 0.042.
Variant Q7D has an abundance fitness of -0.07 ± 0.048.
In the case of Q7E, the abundance fitness is reported as -0.006 ± 0.033.
In the case of Q7F, the abundance fitness is reported as -0.713 ± 0.064.
Work on Q7G yielded an abundance fitness of -0.457 ± 0.029.
Q7H gave an abundance fitness of -0.301 ± 0.045.
For Q7I, the abundance fitness was -0.748 ± 0.075.
Q7K gave an abundance fitness of -0.227 ± 0.032.
Work on Q7L yielded an abundance fitness of -0.743 ± 0.033.
With Q7M the abundance fitness was -0.12 ± 0.034.
Q7N showed an abundance fitness of -0.331 ± 0.049.
Q7P gave an abundance fitness of -0.666 ± 0.057.
Q7S gave an abundance fitness of -0.45 ± 0.033.
Q7T showed an abundance fitness of -0.488 ± 0.035.
In the case of Q7V, the abundance fitness is reported as -0.631 ± 0.032.
For Q7W, the abundance fitness was -0.803 ± 0.051.
